What was measured:
[1] = system: surface proteins of Aggregatibacter actinomycetemcomitans (whole cells) (Aggregatibacter actinomycetemcomitans); conditions: whole-cell binding, real-time PCR of eluted aptamer, SELEX buffer, room temperature
[2] = system: surface proteins of Porphyromonas gingivalis (whole cells) (Porphyromonas gingivalis); conditions: whole-cell binding, real-time PCR of eluted aptamer, SELEX buffer, room temperature

Row | Sequence | Kd [1] | Kd [2]
1 | TCCCTACGGCGCTAACCGTATGTGTACCCGGTGGGGCGCGATTGACGCCACCGTGCTACAAC [A. actinomycetemcomitans aptamer] | 3.5 nM | 
2 | TCCCTACGGCGCTAACTGTAACTGGGAGCGGACCTAGGTTACATGAGCCACCGTGCTACAAC [P. gingivalis aptamer] |  | 4.59 nM

From patent publication US10487331
